Measured values as given in paper doi:10.1101/420174.

Target: afTMEM16 scramblase from Aspergillus fumigatus (Aspergillus fumigatus)
Test: cryo-EM structure

Work on “afTMEM16 scramblase from Aspergillus fumigatus (natural protein)” yielded a stoichiometry N of 2.
